This is an account of results in publication doi:10.1101/2022.03.06.483192.

Test [1] has as its target SYCP1αNcore (UniProt Q15431). Description: SEC-MALS.
The next test has as its target MBP-SYCP1αNcore (UniProt Q15431). Description: SEC-MALS. Background: Size exclusion chromatography separates by hydrodynamic size, large species first.
Another test deals with SYCP1αN (UniProt Q15431). In words: SEC-MALS.
The target in test [2] is SYCP1αNcore (UniProt Q15431). Description: ITC.

As a reminder, the Kd is the concentration at which binding is half-saturated. A higher Kd goes with lower affinity.

Where “and” joins values, the source holds several entries; their conditions need not be identical. Identical values can stand only once.

Chain of SYCP1αNcore (Q15431 206-362): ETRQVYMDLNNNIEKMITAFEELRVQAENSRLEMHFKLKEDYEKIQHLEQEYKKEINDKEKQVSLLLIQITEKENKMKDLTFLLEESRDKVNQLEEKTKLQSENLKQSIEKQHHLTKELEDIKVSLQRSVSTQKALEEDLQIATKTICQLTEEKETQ
Chain of MBP-SYCP1αNcore (Q15431 206-362): as above
Chain of SYCP1αN (Q15431 101-362): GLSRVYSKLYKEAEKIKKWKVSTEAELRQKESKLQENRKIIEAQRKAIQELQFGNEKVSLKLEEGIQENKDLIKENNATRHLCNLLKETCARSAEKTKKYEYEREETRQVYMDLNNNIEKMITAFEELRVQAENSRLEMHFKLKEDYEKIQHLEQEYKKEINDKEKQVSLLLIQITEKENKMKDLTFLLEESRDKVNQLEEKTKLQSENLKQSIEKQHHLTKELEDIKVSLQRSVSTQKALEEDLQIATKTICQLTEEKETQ

Turning to “MBP-SYCE3 (from UniProt A1L190 11-81) (natural protein)”, the stoichiometry N (SYCP1 chains per SYCE3 chain) with SYCP1αNcore [1] and with MBP-SYCP1αNcore was 2 each time.

“SYCE3 P53Q (from UniProt A1L190 11-81) (natural protein)”: the stoichiometry N (SYCP1 chains per SYCE3 chain) with SYCP1αNcore [1] is 2.

On to “SYCE3 W41E Y44E (from UniProt A1L190 11-81) (natural protein)”, for which the stoichiometry N (SYCP1 chains per SYCE3 chain) in the test with SYCP1αNcore [1] and with SYCP1αN was 2 throughout. For the same substance, the KD, single replicate with SYCP1αNcore [2] was 16 nM and 10 nM and 22 nM. The substance further gave a Kd with SYCP1αNcore [2] of 16 nM.
